Here are results for one molecule from publication PMC3477848 (Biochemistry, 2012).

Where two headings read alike, the source gives them in different places.

As usually defined, the Kd is the free concentration of one partner at which half of the binding sites on the other are occupied at equilibrium, for simple one-to-one binding. A high value points to a looser complex.

Experiment in all cases: fluorescence anisotropy
Series [1] concerns the target T1, Dpo4 (SsoDpo4, Y-family DNA polymerase) (Sulfolobus solfataricus, UniProt Q97W02 1-352).
T1 sequence: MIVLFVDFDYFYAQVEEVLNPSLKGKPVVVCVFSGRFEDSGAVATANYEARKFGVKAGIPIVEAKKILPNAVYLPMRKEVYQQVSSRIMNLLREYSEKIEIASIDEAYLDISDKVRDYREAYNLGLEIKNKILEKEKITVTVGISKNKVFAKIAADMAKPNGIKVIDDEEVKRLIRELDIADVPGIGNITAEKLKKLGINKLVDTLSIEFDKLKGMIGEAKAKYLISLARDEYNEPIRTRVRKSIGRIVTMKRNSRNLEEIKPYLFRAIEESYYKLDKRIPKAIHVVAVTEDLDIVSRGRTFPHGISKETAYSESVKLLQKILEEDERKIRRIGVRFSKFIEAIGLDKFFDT

The target of series [2] is T1, Dpo4 (SsoDpo4, Y-family DNA polymerase). This is another data set of the same source.
Series [3] deals with T2, Dpo1 exo- (SsoDpo1, B-family DNA polymerase) (Sulfolobus solfataricus, UniProt P26811 1-882, D231A;D318A).
T2 sequence: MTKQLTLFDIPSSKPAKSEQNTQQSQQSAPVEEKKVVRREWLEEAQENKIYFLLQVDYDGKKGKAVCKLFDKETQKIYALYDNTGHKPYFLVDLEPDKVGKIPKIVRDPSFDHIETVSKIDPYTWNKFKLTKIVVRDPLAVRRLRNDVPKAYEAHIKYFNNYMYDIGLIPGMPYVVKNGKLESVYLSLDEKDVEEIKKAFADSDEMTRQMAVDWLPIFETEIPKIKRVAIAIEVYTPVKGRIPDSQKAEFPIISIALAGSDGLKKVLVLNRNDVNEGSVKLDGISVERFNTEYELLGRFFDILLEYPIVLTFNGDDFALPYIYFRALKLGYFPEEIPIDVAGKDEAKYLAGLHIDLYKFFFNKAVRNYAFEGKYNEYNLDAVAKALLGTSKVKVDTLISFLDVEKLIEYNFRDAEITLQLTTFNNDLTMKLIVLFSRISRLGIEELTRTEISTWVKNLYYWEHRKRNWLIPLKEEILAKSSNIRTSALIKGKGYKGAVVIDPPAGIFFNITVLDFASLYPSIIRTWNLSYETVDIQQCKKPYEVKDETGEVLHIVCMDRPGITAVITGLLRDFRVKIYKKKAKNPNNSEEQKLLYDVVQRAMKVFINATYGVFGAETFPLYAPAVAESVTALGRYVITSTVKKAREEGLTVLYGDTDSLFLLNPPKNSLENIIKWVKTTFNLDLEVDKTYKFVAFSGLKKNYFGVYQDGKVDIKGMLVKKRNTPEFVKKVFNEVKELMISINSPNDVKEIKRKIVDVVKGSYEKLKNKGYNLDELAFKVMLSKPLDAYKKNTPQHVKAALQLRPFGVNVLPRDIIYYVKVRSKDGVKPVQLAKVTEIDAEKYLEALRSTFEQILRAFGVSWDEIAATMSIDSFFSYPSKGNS

The target in series [4] is T2, Dpo1 exo- (SsoDpo1, B-family DNA …). This is another data set of the same source.
Series [5] shares this target. This is another data set of the same source.
The target of series [6] is T1, Dpo4 (SsoDpo4, Y-family DNA polymerase). The source holds these as a separate data set.
Series [7] has the same target. The source holds these as a separate data set.
For series [8], the target named is T2, Dpo1 exo- (SsoDpo1, B-family DNA …). This is another data set of the same source.

In the case of TTTTTTTTTTCCCGGGCCGGCGTTTCGCCGGCCCGGG (structured_DNA) [37-nt hairpin primer-template, 5'-Cy3], the Kd turned out to be 130 ± 4 nM in series [1]; 674 ± 80 nM in series [2]; 109 ± 16 nM in series [3]; 105 ± 3 nM in series [4]; 94 ± 1 nM in series [5]; 133 ± 26 nM in series [6]. Moreover, the Kd in series [7] was determined as 435 ± 116 nM; in series [8], 322 ± 23 nM.
